# Biological target: FLAG-tagged, single-chain human FcRn (human) (UniProt P61769)
# Assay: ELISA at pH 5.5, HSA variant coated, FLAG-tagged single-chain FcRn titrated; column '~Kd at pH 5.5', rank 13; the sheet gives the mutation of HSA-18 as V424I
# Sequence of FLAG-tagged, single-chain human FcRn (human) (P61769 other isoform, or with tags, fused parts or gaps limits assumed): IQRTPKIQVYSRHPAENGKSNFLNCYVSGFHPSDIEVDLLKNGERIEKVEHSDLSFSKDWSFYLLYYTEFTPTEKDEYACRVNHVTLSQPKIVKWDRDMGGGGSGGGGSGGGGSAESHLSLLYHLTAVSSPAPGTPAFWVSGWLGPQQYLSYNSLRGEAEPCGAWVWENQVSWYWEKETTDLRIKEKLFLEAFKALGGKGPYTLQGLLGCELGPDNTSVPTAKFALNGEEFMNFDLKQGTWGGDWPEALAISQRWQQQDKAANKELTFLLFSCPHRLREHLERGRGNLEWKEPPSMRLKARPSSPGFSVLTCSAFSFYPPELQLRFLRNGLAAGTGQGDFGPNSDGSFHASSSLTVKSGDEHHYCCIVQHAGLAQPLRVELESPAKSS
substance,measurement,value
hsa-18: full length HSA V241I (from UniProt P02768 25-609),Kd,> 100 nM

# Source: patent US20140315817A1
